In article PMC3505452 (Science (New York, N.Y.), 2012):
Positions count from the first letter of the chain named. Names and notes keep the numbering of the source.

Tests used:
UVR8^R146A (Arabidopsis) = UVR8^R146A (Arabidopsis) (UniProt Q9FN03); experiment: SEC
UVR8^R286A (Arabidopsis) = UVR8^R286A (Arabidopsis) (UniProt Q9FN03); experiment: SEC
[1] = target: T1, UVR8 (UV … LOCUS 8), recombinant Arabidopsis, full-length wild type (Arabidopsis), Q9FN03; experiment: SEC; details: remark: other sources report otherwise
T1 chain: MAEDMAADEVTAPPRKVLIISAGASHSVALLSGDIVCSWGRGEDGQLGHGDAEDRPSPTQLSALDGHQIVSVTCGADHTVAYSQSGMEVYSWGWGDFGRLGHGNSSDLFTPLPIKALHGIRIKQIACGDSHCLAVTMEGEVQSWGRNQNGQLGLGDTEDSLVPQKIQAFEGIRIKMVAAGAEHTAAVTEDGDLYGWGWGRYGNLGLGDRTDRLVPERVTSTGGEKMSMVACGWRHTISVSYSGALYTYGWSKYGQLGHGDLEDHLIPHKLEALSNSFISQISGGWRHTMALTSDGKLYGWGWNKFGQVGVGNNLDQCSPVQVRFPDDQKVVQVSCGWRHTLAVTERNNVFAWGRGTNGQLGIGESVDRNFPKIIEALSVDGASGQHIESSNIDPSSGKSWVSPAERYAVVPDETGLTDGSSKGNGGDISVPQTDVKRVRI

[2] = target: T1, UVR8 (UV … LOCUS 8), recombinant …; experiment: SDS-PAGE without sample boiling; details: remark: other sources report otherwise
[3] = target: T1, UVR8 (UV … LOCUS 8), recombinant …; experiment: SEC-MALS; details: remark: other sources report otherwise
[4] = target: T1, UVR8 (UV … LOCUS 8), recombinant …; experiment: SAXS; details: remark: other sources report otherwise
[5] = target: T2, UVR8^W285A (Arabidopsis), Q9FN03; experiment: SAXS; details: remark: other sources report otherwise
T2 chain: T1 chain with W285A

[6] = target: T3, UVR8^W233F (Arabidopsis), Q9FN03; experiment: SEC; details: remark: other sources report otherwise
T3 chain: T1 chain with W233F

[7] = target: T3, UVR8^W233F (Arabidopsis), Q9FN03; experiment: SEC; details: remark: other sources report otherwise
SEC = target: the molecule itself; experiment: SEC
SAXS = target: the molecule itself; experiment: SAXS

“UVR8^R146A (from UniProt Q9FN03 1-440) (natural protein)” gave a stoichiometry N (UVR8^R146A (Arabidopsis)) of 2.

Molecule “UVR8^R286A (from UniProt Q9FN03 1-440) (natural protein)” has a stoichiometry N (UVR8^R286A (Arabidopsis)) of 2.

B1: UVR8 (UV … LOCUS 8), recombinant Arabidopsis, full-length wild type, Q9FN03 1-440 (natural protein)
chain: T1 chain
B1 showed a stoichiometry N [1] of 2, a stoichiometry N [2] of 2 and a stoichiometry N [3] of 2. The stoichiometry N [4] was 2.

B2: UVR8^W285A, Q9FN03 1-440 (natural protein)
chain: T1 chain with W285A
For B2, the stoichiometry N [5] was 2.

B3: UVR8^W233F, Q9FN03 1-440 (natural protein)
chain: T1 chain with W233F
B3 gave a stoichiometry N [6] of 2 and a stoichiometry N [7] of 2.

B4: UVR8^W285F (natural protein, Arabidopsis, UniProt Q9FN03 1-440, looked up)
chain: T1 chain with W285F
For B4, the “stoichiometry N” value (SEC) was 2.

B5: trypsin-treated UVR8 (crystallographic construct) (domain or fragment, Arabidopsis)
chain: MAEDMAADEVTAPPRKVLIISAGASHSVALLSGDIVCSWGRGEDGQLGHGDAEDRPSPTQLSALDGHQIVSVTCGADHTVAYSQSGMEVYSWGWGDFGRLGHGNSSDLFTPLPIKALHGIRIKQIACGDSHCLAVTMEGEVQSWGRNQNGQLGLGDTEDSLVPQKIQAFEGIRIKMVAAGAEHTAAVTEDGDLYGWGWGRYGNLGLGDRTDRLVPERVTSTGGEKMSMVACGWRHTISVSYSGALYTYGWSKYGQLGHGDLEDHLIPHKLEALSNSFISQISGGWRHTMALTSDGKLYGWGWNKFGQVGVGNNLDQCSPVQVRFPDDQKVVQVSCGWRHTLAVTERNNVFAWGRGTNGQLGIGESVDRNFPKIIEALSVDGASGQHIESSNIDPSSGKSWVSPAE
B5 was tested, and the “stoichiometry N” value (SAXS) was 2.
